Consider 17 molecules from US20210340231A1 (FAPON BIOTECH, published 2021).

First the molecules themselves.
B1: Mutation 1-49 (antibody, V domains shown)
VH: EVQLQQSGAELVKPGASVKLSCTASGFNIKDYYMHWMKQRTEQGLDWIGRIDPEDAETRYAPEFQGKATITADTSSNTAYLQLSTLTSEDTAVYYCARYYSSYLPFVYWGQGTLVTASA
VL: DVVMTQTPLSLSVSLGDQASISCRSSQSILYSNRHTYLHWYLQKPGQSPKLLIFQLSNRFSGVPDRFSGSGSGTDFTLKINRVEAEDLGVYFCSQSTHIPYTFGSGTKLEIKR
notes: built as for Mutation 1
B2: Mutation 1-23 (antibody, V domains shown)
VH: EVQLQQSGAELVKPGASVKLSCTASGFNIKDYYMHWMKQRTEQGLDWIGRIDPEDGETKYAPEFQGKATITADTSSNTAYLQLSTLTSEDTAVYYCARYYSSYIPFVYWGQGTLVTASA
VL: DVVMTQTPLSLSVSLGDQASISCRSSQSILYSNRHTYLHWYLQKPGQSPKLLIFQISNRFSGVPDRFSGSGSGTDFTLKINRVEAEDLGVYFCSQSTHIPYTFGSGTKLEIKR
notes: built as for Mutation 1
B3: Mutation 1-18 (antibody, V domains shown)
VH: EVQLQQSGAELVKPGASVKLSCTASGFNIKDYFMHWMKQRTEQGLDWIGRIDPEDAETKYAPEFQGKATITADTSSNTAYLQLSTLTSEDTAVYYCARYYSSYIPFVYWGQGTLVTASA
VL: DVVMTQTPLSLSVSLGDQASISCRSSQSILYSNRHTYLHWYLQKPGQSPKLLIFQISNRFSGVPDRFSGSGSGTDFTLKINRVEAEDLGVYFCSQSTHLPFTFGSGTKLEIKR
notes: built as for Mutation 1
B4: Mutation 1-52 (antibody, V domains shown)
VH: EVQLQQSGAELVKPGASVKLSCTASGFNIKDYFMHWMKQRTEQGLDWIGRIDPEDAETRYAPEFQGKATITADTSSNTAYLQLSTLTSEDTAVYYCARYYSSYVPFVYWGQGTLVTASA
VL: DVVMTQTPLSLSVSLGDQASISCRSSQSLLYSNRHTYLHWYLQKPGQSPKLLIFQVSNRFSGVPDRFSGSGSGTDFTLKINRVEAEDLGVYFCSQSTHLPFTFGSGTKLEIKR
notes: built as for Mutation 1
B5: Mutation 1-38 (antibody, V domains shown)
VH: EVQLQQSGAELVKPGASVKLSCTASGFNIKDYYMHWMKQRTEQGLDWIGRIDPEDAETKYAPEFQGKATITADTSSNTAYLQLSTLTSEDTAVYYCARYYSSYIPFVYWGQGTLVTASA
VL: DVVMTQTPLSLSVSLGDQASISCRSSQSLIYSNRHTYLHWYLQKPGQSPKLLIFQISNRFSGVPDRFSGSGSGTDFTLKINRVEAEDLGVYFCSQSTHIPFTFGSGTKLEIKR
notes: built as for Mutation 1
B6: Mutation 1-50 (antibody, V domains shown)
VH: EVQLQQSGAELVKPGASVKLSCTASGFNLKDYFMHWMKQRTEQGLDWIGRIDPEDAETKYAPEFQGKATITADTSSNTAYLQLSTLTSEDTAVYYCARYYSSYIPFVYWGQGTLVTASA
VL: DVVMTQTPLSLSVSLGDQASISCRSSQSILYSNRHTYLHWYLQKPGQSPKLLIFQISNRFSGVPDRFSGSGSGTDFTLKINRVEAEDLGVYFCSQSTHIPFTFGSGTKLEIKR
notes: built as for Mutation 1
B7: Mutation 1-44 (antibody, V domains shown)
VH: EVQLQQSGAELVKPGASVKLSCTASGFNIKDYFMHWMKQRTEQGLDWIGRIDPEDAETKYAPEFQGKATITADTSSNTAYLQLSTLTSEDTAVYYCARYYSSYLPFVYWGQGTLVTASA
VL: DVVMTQTPLSLSVSLGDQASISCRSSQSILYSNRHTYLHWYLQKPGQSPKLLIFQLSNRFSGVPDRFSGSGSGTDFTLKINRVEAEDLGVYFCSQSTHLPFTFGSGTKLEIKR
notes: built as for Mutation 1
B8: Mutation 1-37 (antibody, V domains shown)
VH: EVQLQQSGAELVKPGASVKLSCTASGFNIKDYFMHWMKQRTEQGLDWIGRIDPEDGETKYAPEFQGKATITADTSSNTAYLQLSTLTSEDTAVYYCARYYSSYVPFVYWGQGTLVTASA
VL: DVVMTQTPLSLSVSLGDQASISCRSSQSILYSNRHTYLHWYLQKPGQSPKLLIFQVSNRFSGVPDRFSGSGSGTDFTLKINRVEAEDLGVYFCSQSTHLPYTFGSGTKLEIKR
notes: built as for Mutation 1
B9: Mutation 1-14 (antibody, V domains shown)
VH: EVQLQQSGAELVKPGASVKLSCTASGFNIKDYFMHWMKQRTEQGLDWIGRIDPEDAETKYAPEFQGKATITADTSSNTAYLQLSTLTSEDTAVYYCARYYSSYIPFVYWGQGTLVTASA
VL: DVVMTQTPLSLSVSLGDQASISCRSSQSLLYSNRHTYLHWYLQKPGQSPKLLIFQISNRFSGVPDRFSGSGSGTDFTLKINRVEAEDLGVYFCSQSTHIPFTFGSGTKLEIKR
notes: built as for Mutation 1
B10: Mutation 1-4 (antibody, V domains shown)
VH: EVQLQQSGAELVKPGASVKLSCTASGFNLKDYFMHWMKQRTEQGLDWIGRIDPEDAETKYAPEFQGKATITADTSSNTAYLQLSTLTSEDTAVYYCARYYSSYVPFVYWGQGTLVTASA
VL: DVVMTQTPLSLSVSLGDQASISCRSSQSLLYSNRHTYLHWYLQKPGQSPKLLIFQVSNRFSGVPDRFSGSGSGTDFTLKINRVEAEDLGVYFCSQSTHLPFTFGSGTKLEIKR
notes: built as for Mutation 1
B11: Mutation 1-24 (antibody, V domains shown)
VH: EVQLQQSGAELVKPGASVKLSCTASGFNLKDYFMHWMKQRTEQGLDWIGRIDPEDAETRYAPEFQGKATITADTSSNTAYLQLSTLTSEDTAVYYCARYYSSYVPFVYWGQGTLVTASA
VL: DVVMTQTPLSLSVSLGDQASISCRSSQSLLYSNRHTYLHWYLQKPGQSPKLLIFQVSNRFSGVPDRFSGSGSGTDFTLKINRVEAEDLGVYFCSQSTHIPFTFGSGTKLEIKR
notes: built as for Mutation 1
B12: Mutation 1-34 (antibody, V domains shown)
VH: EVQLQQSGAELVKPGASVKLSCTASGFNIKDYFMHWMKQRTEQGLDWIGRIDPEDGETKYAPEFQGKATITADTSSNTAYLQLSTLTSEDTAVYYCARYYSSYIPFVYWGQGTLVTASA
VL: DVVMTQTPLSLSVSLGDQASISCRSSQSLLYSNRHTYLHWYLQKPGQSPKLLIFQISNRFSGVPDRFSGSGSGTDFTLKINRVEAEDLGVYFCSQSTHIPYTFGSGTKLEIKR
notes: built as for Mutation 1
B13: Mutation 1-11 (antibody, V domains shown)
VH: EVQLQQSGAELVKPGASVKLSCTASGFNIKDYYMHWMKQRTEQGLDWIGRIDPEDAETKYAPEFQGKATITADTSSNTAYLQLSTLTSEDTAVYYCARYYSSYVPFVYWGQGTLVTASA
VL: DVVMTQTPLSLSVSLGDQASISCRSSQSILYSNRHTYLHWYLQKPGQSPKLLIFQVSNRFSGVPDRFSGSGSGTDFTLKINRVEAEDLGVYFCSQSTHIPFTFGSGTKLEIKR
notes: built as for Mutation 1
B14: Mutation 1-6 (antibody, V domains shown)
VH: EVQLQQSGAELVKPGASVKLSCTASGFNIKDYFMHWMKQRTEQGLDWIGRIDPEDGETKYAPEFQGKATITADTSSNTAYLQLSTLTSEDTAVYYCARYYSSYVPFVYWGQGTLVTASA
VL: DVVMTQTPLSLSVSLGDQASISCRSSQSILYSNRHTYLHWYLQKPGQSPKLLIFQVSNRFSGVPDRFSGSGSGTDFTLKINRVEAEDLGVYFCSQSTHIPYTFGSGTKLEIKR
notes: built as for Mutation 1
B15: Mutation 1-31 (antibody, V domains shown)
VH: EVQLQQSGAELVKPGASVKLSCTASGFNIKDYYMHWMKQRTEQGLDWIGRIDPEDAETKYAPEFQGKATITADTSSNTAYLQLSTLTSEDTAVYYCARYYSSYVPFVYWGQGTLVTASA
VL: DVVMTQTPLSLSVSLGDQASISCRSSQSILYSNRHTYLHWYLQKPGQSPKLLIFQVSNRFSGVPDRFSGSGSGTDFTLKINRVEAEDLGVYFCSQSTHIPYTFGSGTKLEIKR
notes: built as for Mutation 1
B16: Mutation 1-51 (antibody, V domains shown)
VH: EVQLQQSGAELVKPGASVKLSCTASGFNLKDYYMHWMKQRTEQGLDWIGRIDPEDGETRYAPEFQGKATITADTSSNTAYLQLSTLTSEDTAVYYCARYYSSYLPFVYWGQGTLVTASA
VL: DVVMTQTPLSLSVSLGDQASISCRSSQSLIYSNRHTYLHWYLQKPGQSPKLLIFQLSNRFSGVPDRFSGSGSGTDFTLKINRVEAEDLGVYFCSQSTHLPYTFGSGTKLEIKR
notes: built as for Mutation 1
B17: Mutation 1-53 (antibody, V domains shown)
VH: EVQLQQSGAELVKPGASVKLSCTASGFNIKDYYMHWMKQRTEQGLDWIGRIDPEDAETKYAPEFQGKATITADTSSNTAYLQLSTLTSEDTAVYYCARYYSSYLPFVYWGQGTLVTASA
VL: DVVMTQTPLSLSVSLGDQASISCRSSQSIIYSNRHTYLHWYLQKPGQSPKLLIFQLSNRFSGVPDRFSGSGSGTDFTLKINRVEAEDLGVYFCSQSTHIPYTFGSGTKLEIKR
notes: built as for Mutation 1

The term Kd denotes a measure of binding affinity in units of concentration. In general, koff refers to the rate constant with which the complex falls apart. The term kon denotes the second-order rate constant of association.

This assay deals with T1, CTNI quality control recombinant protein (PK2-CTNI-1, 170120, produced by the applicant) (human, UniProt P19429 2-210, limits assumed).
T1 construct: also called cardiac troponin I
T1 sequence (P19429 2-210 limits assumed): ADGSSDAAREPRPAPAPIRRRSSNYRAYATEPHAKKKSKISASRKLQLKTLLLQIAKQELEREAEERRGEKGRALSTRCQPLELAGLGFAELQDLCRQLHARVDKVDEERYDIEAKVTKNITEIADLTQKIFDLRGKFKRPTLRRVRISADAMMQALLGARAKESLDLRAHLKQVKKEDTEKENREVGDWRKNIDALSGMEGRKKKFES
Briefly: AMC sensor kinetics, antibody captured, cTnI analyte. On the procedure:
Using the AMC sensor, the purified antibody was diluted with PBST to 10 μg/ml, and the CTNI quality control recombinant protein (PK2-CTNI-1, 170120, produced by the applicant) was serially diluted with PBST to 400 nmol/ml, 200 nmol/ml, 100 nmol/ml, 50 nmol/ml, 25 nmol/ml, 12.5 nmol/ml, 6.25 nmol/ml, and 0 nmol/ml.
For B1, the Kd was found to be 538 pM, the koff worked out at 0.000298 s⁻¹ and the kon was found to be 553000 M⁻¹ s⁻¹.
B2: the Kd amounted to 968 pM, the dissociation rate constant (koff) is 0.000673 s⁻¹ and the kon was found to be 695000 M⁻¹ s⁻¹.
For the molecule B3, the Kd stood at 680 pM, the koff came out at 0.000282 s⁻¹ and the on-rate constant (kon) was found to be 415000 M⁻¹ s⁻¹.
On to B4, for which the Kd is 941 pM, the koff came to 0.000229 s⁻¹ and the kon was found to be 243000 M⁻¹ s⁻¹.
Consider B5, for which the Kd worked out at 240 pM, the koff worked out at 0.000103 s⁻¹ and the kon came to 431000 M⁻¹ s⁻¹.
On to B6, for which the dissociation constant (Kd) turned out to be 386 pM, the koff came to 5.48e-05 s⁻¹ and the kon is 142000 M⁻¹ s⁻¹.
For B7, in that order: 865 pM, 0.000464 s⁻¹ and 537000 M⁻¹ s⁻¹.
B8: the Kd worked out at 667 pM, the koff is 0.000267 s⁻¹ and the kon worked out at 400000 M⁻¹ s⁻¹.
B9: the Kd worked out at 415 pM, the koff came to 0.000279 s⁻¹ and the kon amounted to 673000 M⁻¹ s⁻¹.
Take B10: the equilibrium dissociation constant (Kd) was determined as 963 pM, the koff came out at 0.00023 s⁻¹ and the kon was found to be 239000 M⁻¹ s⁻¹.
In the case of B11, the Kd was found to be 408 pM, the off-rate constant (koff) turned out to be 0.000259 s⁻¹ and the kon stood at 635000 M⁻¹ s⁻¹.
Take B12: the Kd was 1410 pM, the koff amounted to 0.000598 s⁻¹ and the kon is 424000 M⁻¹ s⁻¹.
B13: the Kd stood at 606 pM, the koff stood at 0.000443 s⁻¹ and the kon was 731000 M⁻¹ s⁻¹.
B14: the Kd is 734 pM, the koff turned out to be 0.000266 s⁻¹ and the on-rate constant (kon) was 362000 M⁻¹ s⁻¹.
For the molecule B15, the Kd came to 795 pM, the koff turned out to be 0.000301 s⁻¹ and the kon came out at 378000 M⁻¹ s⁻¹.
In the same order, the values of B16 are 765 pM, 7.54e-05 s⁻¹ and 98600 M⁻¹ s⁻¹.
For B17, in that order: 721 pM, 0.000243 s⁻¹ and 337000 M⁻¹ s⁻¹.
